Assays:
[1] = molecular target: T1, human IL-17RA on HT1080 cells (human, UniProt Q96F46 33-866); assay: cell-based or functional assay
T1 sequence: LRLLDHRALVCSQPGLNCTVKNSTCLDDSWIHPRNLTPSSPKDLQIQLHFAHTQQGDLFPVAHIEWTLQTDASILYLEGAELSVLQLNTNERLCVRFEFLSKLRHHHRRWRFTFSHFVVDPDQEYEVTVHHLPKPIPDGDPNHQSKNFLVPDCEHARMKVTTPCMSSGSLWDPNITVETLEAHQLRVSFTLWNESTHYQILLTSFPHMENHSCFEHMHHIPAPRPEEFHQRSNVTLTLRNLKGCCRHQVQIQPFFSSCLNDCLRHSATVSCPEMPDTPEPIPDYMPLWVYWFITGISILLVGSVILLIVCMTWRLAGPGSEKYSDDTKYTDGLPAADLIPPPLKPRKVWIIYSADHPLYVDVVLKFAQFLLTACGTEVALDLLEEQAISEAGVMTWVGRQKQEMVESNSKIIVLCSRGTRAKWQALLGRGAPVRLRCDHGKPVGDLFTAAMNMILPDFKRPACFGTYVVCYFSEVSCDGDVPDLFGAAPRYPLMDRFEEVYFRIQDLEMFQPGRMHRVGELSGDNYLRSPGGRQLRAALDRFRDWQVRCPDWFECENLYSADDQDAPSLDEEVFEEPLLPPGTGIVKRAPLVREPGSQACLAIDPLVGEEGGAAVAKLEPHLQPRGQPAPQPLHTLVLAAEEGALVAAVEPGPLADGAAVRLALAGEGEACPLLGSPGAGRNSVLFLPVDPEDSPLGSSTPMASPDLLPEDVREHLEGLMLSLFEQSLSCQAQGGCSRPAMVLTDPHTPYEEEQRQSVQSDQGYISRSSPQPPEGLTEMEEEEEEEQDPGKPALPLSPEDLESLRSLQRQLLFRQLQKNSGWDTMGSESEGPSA

IL-17RB = molecular target: T2, IL-17RB (UniProt Q9NRM6 18-289, limits assumed); assay: specificity ELISA, antigen coated, anti-His-HRP detection
T2 sequence (looked up): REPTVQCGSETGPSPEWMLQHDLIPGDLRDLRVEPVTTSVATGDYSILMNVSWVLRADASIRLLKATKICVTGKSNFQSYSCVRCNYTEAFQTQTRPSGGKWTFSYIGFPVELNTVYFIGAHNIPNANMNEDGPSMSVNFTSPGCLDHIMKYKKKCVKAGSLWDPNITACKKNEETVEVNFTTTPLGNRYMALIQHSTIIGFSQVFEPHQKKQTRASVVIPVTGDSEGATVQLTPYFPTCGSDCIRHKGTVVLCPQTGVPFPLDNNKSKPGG
Procedure: The binding ELISA for crude or purified VH was similar to the serum ELISA and phage ELISA, previously described, mostly differing in the final detection steps. Briefly, antigen was immobilised on maxisorb plates (Nunc 443404) by adding 50 ul volumes at 0.1-1 ug/ml in PBS and incubating at 4° C. overnight. Following coating, the antigen solution was aspirated and the plates were washed using PBS (prepared from PBS tablets, Oxoid cat no. BR0014G) supplemented with 0.05% Tween® 20 (sigma P1379), followed by washes with PBS without added Tween®. To block non-specific protein interactions, a solution of 3% skimmed milk powder (Marvel) in PBS was added to the wells and the plate was incubated for at least one hour at room temperature. Dilutions of periplasmic extract or purified VH in 3% Marvel/PBS were prepared in polypropylene tubes or plates and incubated for at least one hour at room temperature prior to transfer to the blocked ELISA plate where a further incubation of at least one hour took place. Unbound protein was then washed away using repetitive washes with PBS/Tween® followed by PBS. A solution of HRP-conjugated anti-His Ab (Miltenyi Biotec, 130-092-785), prepared at 1:1000 dilution in PBS/3% Marvel was then added to each well and a further incubation at room temperature for at least one hour took place. Unbound detection antibody was removed by repeated washing using PBS/Tween® and PBS. The ELISA was then developed using TMB substrate (Sigma cat. no. T0440) and the reaction was stopped after 10 minutes by the addition of 0.5M H₂SO₄ solution (Sigma cat. no. 320501). Absorbances were determined by reading at 450 nm.

[2] = molecular target: T3, recombinant human IL-17RA Fc fusion protein (R&D Systems 177-IR-100) (human, UniProt Q96F46 33-320); assay: IL-17RA ligand inhibition ELISA (FIG. 10A): VH competes with IL-17A for coated IL-17RA-Fc
T3 construct: Bought protein; not shown: Fc domain of human IgG1
T3 sequence: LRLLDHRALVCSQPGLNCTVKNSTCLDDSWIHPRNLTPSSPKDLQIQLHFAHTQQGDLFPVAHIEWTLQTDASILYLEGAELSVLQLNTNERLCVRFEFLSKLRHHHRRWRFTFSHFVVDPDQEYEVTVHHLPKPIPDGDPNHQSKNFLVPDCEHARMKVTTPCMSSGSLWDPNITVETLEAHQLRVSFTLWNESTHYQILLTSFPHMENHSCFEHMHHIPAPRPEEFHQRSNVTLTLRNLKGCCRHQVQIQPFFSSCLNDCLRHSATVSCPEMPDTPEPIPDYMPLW
Procedure: (§1) VH, both purified and crude periplasmic extracts, were also tested for their ability to inhibit the interaction of IL-17A with recombinant IL-17RA-Fc. […] Following washing of excess coating antigen, as described above, the wells of the plate were incubated with 3% Marvel/PBS to block non-specific protein interactions. VH preparations, crude periplasmic extracts or purified VH, or suitable controls, were prepared with 1 nM recombinant IL-17A (Peprotech, cat# AF-200-17) in 3% skimmed milk powder/PBS solution in polypropylene plates or tubes. The mixture was then transferred to the assay plate and incubated for 1 hour at room temperature. Excess protein was removed by washing and bound IL-17A was detected by incubation with biotinylated anti-IL-17A Mab (R & D Systems, cat BAF317) followed by the addition of neutravidin-HRP (Pierce, cat#31030) and TMB substrate (Sigma, cat# T0440). The TMB reaction was stopped by addition of 0.5M H₂SO₄ and absorbances were measured at 450 nm in a plate reader.

[3] = molecular target: T3, recombinant human IL-17RA Fc fusion …; assay: receptor/ligand biochemical inhibition ELISA: VH competes with 1 nM IL-17A for coated IL-17RA-Fc
Procedure: as §1

Cell assay IC50 [1]: 280 nM
binding result (IL-17RB): no binding
IC50 [2]: 4 nM
IC50 [3]: 3.7 nM
B1: VH clone 2.1 (VHH)
VHH: QVQLVQSGAEVKKPGASVKVSCKASGYPFTSYDINWVRQATGQSLEWMGWMNPNSGDTVYAQKFQGRVTMTRNTSISTAYMELSSLRSEDTAVYFCARGRRDDWKNNYWGQGTLVTVSS
notes: Human VH single domain antibody, no light chain; Parent clone of family 2; also called VH 2.1

— patent US20180215829A1 (CRESCENDO BIOLOGICS, published 2018)
